According to the DeepSol protein solubility set:

Assay: soluble on expression in E. coli; label from the status in PepcDB or PDB records

Soluble on expression in E. coli, not soluble:
MGSDKIHHHHHHMSINSREVLAEKVKNAVNNQPVTDMHTHLFSPNFGEILLWDIDELLTYHYLVAEVMRWTDVSIEAFWAMSKREQADLIWEELFIKRSPVSEACRGVLTCLQGLGLDPATRDLQVYREYFAKKTSEEQVDTVLQLANVSDVVMTNDPFDDNERISWLEGKQPDSRFHAALRLDPLLNEYEQTKHRLRDWGYKVNDEWNEGSIQEVKRFLTDWIERMDPVYMAVSLPPTFSFPEESNRGRIIRDCLLPVAEKHNIPFAMMIGVKKRVHPALGDAGDFVGKASMDGVEHLLREYPNNKFLVTMLSRENQHELVVLARKFSNLMIFGCWWFMNNPEIINEMTRMRMEMLGTSFIPQHSDARVLEQLIYKWHHSKSIIAEVLIDKYDDILQAGWEVTEEEIKRDVADLFSRNFWRFVGRNDHVTSVKVEQQT
MGSDKIHHHHHHMSKEASFEIQLPLFAGPFDLLLFFIERDELDIYDIPISKITNDFLEYIHRLEKMNVDIASEFILVAATLMRIKAKTLLPRPDIDPQGNEIDPREELVSHLLEYKKYKSVIAEFSELEETSLKREKRGNIAKELKLLSEVSNVETELQDIDLYKLLKVFEKVIVRWKEEKTKPVHHVVQYPYSIELQKEYIINKVSRGQRISFTEIINDIPVKMAVIYNFLSILELLALQKIQLHLGEGFNNFWIAQYDGEHAAVNEYANDIE
MGSDKIHHHHHHMSKLFDCITDELQDFIAAQHLFFVGSAPLSPTGHVNLSPKGLGCFRVLSPKQVGYVDLTGSGNETSAHLQENGRITFMFCAFEEPACILRLYGQGNTILPSSPDWDSLYSLFLPMPGTRQIIVADIEKVQTSCGFGVPLYEYQGQRQTLVNWASKKGEEGVREYQQKKNLVSIDGLPTPLSKLS
MGSDKIHHHHHHMSLFHLIAPSGYCIKQHAALRGIQRLTDAGHQVNNVEVIARRCERFAGTETERLEDLNSLARLTTPNTIVLAVRGGYGASRLLADIDWQALVARQQHDPLLICGHSDFTAIQCGLLAHGNVITFSGPMLVANFGADELNAFTEHHFWLALRNETFTIEWQGEGPTCRAEGTLWGGNLAMLISLIGTPWMPKIENGILVLEDINEHPFRVERMLLQLYHAGILPRQKAIILGSFSGSTPNDYDAGYNLESVYAFLRSRLSIPLITGLDFGHEQRTVTLPLGAHAILNNTREGTQLTISGHPVLKM
MGSDKIHHHHHHMSLFNIFDVSGSGMAAQSIRLNTTASNIANADSVSSSVDKTYRARHPIFEAELNKAHDQQNGTKGVQVRAIVESDKPLLKEYSPSHPMADGDGFIYKPNVNVMEEMADMISASRSYQMNVQVADATKTMLQQTLRMGK
MGSDKIHHHHHHMSLNKNLNDIEKSQLIELMHESLRIRSHFELFLWMQGKLQVFLPHEIMITAWGDFSLGVIYFNIVSPLPGIRSDKIASHEINQFLQNLFNYWLNHAKAPFTLAAADNILHDCEFSNKESSYYLKNMKSALVHAIKDHRGRHDCLYVLLSSNLSFPPASRPMLEALLPYIDSALRQIEHLPEQQPTLIKAEPEPKDESLNILSGRELEIMDWVTKGKTNQEIGMILDISAFTVKNHLQRIFKKLNVMNRAQAVAKFRK
MGSDKIHHHHHHMSLPETPTIRIGMAMWSHPGWKTVFPGLDAEARLTAYSRVFGTVEGNTSFYALPSAQQVSIWQRATPEDFRFTFKLPRRITHELSLRNCREEVLQFFRLFEPLMAKTGVWKIQLPARFGPESLSVLTQFLSLLPEGIGLGVEVRHRAFFAKGEAEKDFNRLLMDKGINRIIMDTRPVFALPAINEAITDAHQKKPRVPVHPLATGAHPVVRFIAQPHTPAAWGPGGKPADLGCADNLAFFAPWLGKLAGWLAEGRSPYLFIHTPDNSDAPLLASELAKQVAAHLQALHPGLPIPSVMLDSAESDGGQIGLGLQ
MGSDKIHHHHHHMSLQFDHETLGQRVLFGSGEAAQNLAAEISRLDAKNVMVVAGDFELPMARQVAADIDVKVWHSNVVMHVPIETAEEARSVAKENDIDVVVCVGGGSTTGLAKAIAMTTALPIIAVPTTYAGSEATNVWGLTEAARKTTGVDNKVLPVTVIYDSALTMSLPVEMSVASGLNGLAHCIDSLWGPKADPINAAMAAEGIRALSAGLPKIVADAQDVDGRDEALYGAYLAAVSFASAGSGLHHKICHVLGGTFNLPHAQTHATVLPYVLAFNAPYAPQAEQRAAAAFGSATALEGLQQLRAQVGAPQRLSDYGFTAAGIPEAVEIILEKVPANNPRTVTEENLTALLTTALNGDDPATLN
MGSDKIHHHHHHMSMVQSAFPPRRNSVGVQVGSIRIGGGAPIVVQSMTNTDTEDEIATTVQVAQLARAGSELVRITVNTAEAARAVPGIRARLDDMGCQVPLIGDFHFNGHKLVTEYPGCARALAKYRINPGNVGHGKKRDEQFSILIEAACKYEKPVRIGVNWGSLDPELLARMMDENARSGDPRDASAVMYEALITSALQSAERAEEIGLGRDRIILSCKMSGVRDLITVYRALAARCDYALHLGLTEAGMGSKGIVASTAALSVLLLEGIGDTIRISLTPEPGGDRAREVVVAQEILQTTGLRAFVPLVAACPGCGRTTSTYFQELAESIQGYVREQMLVWREEYEGVENMTLAVMGCVVNGPGESKHANIGISLPGSGERPVAPVFVDGQKAVTLKGDNIAGEFRQIVDEYVQMKYPKKAVDAH
MGSDKIHHHHHHMSNEHQLLVGLLKKLKDDALILPTLPEVAMRVQEVVGRPDSSLKQVAEIIGQDAAISARIIKVANSALYSRGVPAENINSAVTRIGLTQIKSIATSVAMEQLFISTNEMVWEVMDEVWRTSIDVTAAACSLLQIYNKKHPGSGLNYDTLTLAGLVHNIGALPVLTEAEAHPEMFTTIEHLRSLVRKMQGPIGRAVLKSWDFAPEVMEVVERWADLPYLGDHVSYLDFIRAAAFYTGELRAGNELEQRLDVFVKRGLPVSPEDLGSDAFLDSYHSIKASYE
MGSDKIHHHHHHMSNENIVLARNTERAPKHHLAAQTVAFSHYNHLSAQLPIEPTSGQLVEGGIRAQATQCLKNIQAVVESINHVMSDIVRMTIFVKDMRDAAAVEEVYAAFFTHYYPAKTVVAVADLPLGASVQMEALVSNGEGTIPNAPQAGDLIKLTNQTVQAPIDALASQTVAFSHYNNLSAQLPIDPQTGRVVAGCVKTQTKQCLKNIKAILTSIDVPFDDIVKINIYLKDLSKLEAVNQVHAAFFPDSGIARTVNYMPARTVIAVADLPMGAAVQVEAVVSHGDGTPPQAIEDRHGLIIEANNTEHAPKCPFSTQTVAFSHYNHLSAQLPLDPKTNALVAGGIKEQTTQCLENIKAIIESVDHSLADLVKVNIFVKEIEELAAVDDVYQTYFPEGTPARRVIGVTDLPKGAQIQIEAIAGNAEGTPPIG
MGSDKIHHHHHHMSNNSKISWTTTTWNVTAGCDPISDGCKNCYARMMAERLKAMGQAKYQNGFIPTIHSECLNEPFGWKGNKLVFVVSMGDLFHKDIPFDFIDKVIEVITKCPQHTFQILTKRAERMYEYFSTHAIPENVWLGVTVENQKVKGRIDYLKKLDAPVRFLSCEPLLEDLGTLDLSDIDWVIVGGESGNRARKVEKDWILNIKSQCDASTSTAFFFKQWGTWGADGVKRSAKENGCLLDGKEYHAYPTPRKIKP
MGSDKIHHHHHHMSNRHDADTPARLSSGIDGIDDILGGGLTPHRMYLVEGAPGTGKTTLALQFLLKGVEEGQGGLYITLSETRPELIAVAESHGWDISRFTILELLSDEGLDPQYEQTVLHPAEVELGETVRNVIQHVDELKPARIVLDSLSELRLLSQNPLRYRRQILALKRYFATRECTVLLLDDNSSDPGDVQLHSIAHGVISLDNLVHDYGGNRRRARVAKMRGIKFREGYHDFTLDTGGIHVYPRLVAAEHHADFSTEVVSTGTAGLDALLGGGLIPGTNALMIGPSGVGKTTTVVSCLIAALERGERCVYYVFDETLTTLMTRCATLGIYLAPHVESGLLTLRQIDPAEISPGEFASDVRRSVEKKGVRYVAIDSLNAYLQAMPGERYLLLQMHELLGYLNQQGIVTMLVLGQHGIIGEVQNDIDISYLSDVVVLFRYFEHHGEVLTAITAVKSRANAHERSIRQFRLGVNGVEVGDALRDFEGVLSGLPAYRGSTALLGATNRVIETPGK
MGSDKIHHHHHHMSNTLLFRPNEARALSALFRTGGLTRASLARELDLTRSTTGTLVQNLVDAGLARERESTTGNEAEPKVGRPGIVVEIAGSGVFFLGAYIGVNRIDVIAIDLSGTVRAKATRPFSGAASRPAQAMELIVALVDEVRRTLPPGARPHGLNVALPGFLDGDGETFHAAILGWHGVSLAQPISESIDLDVPVLLENDANAVAVAETYRSAPPDGKGDDSLVVLIENGVGGGIVSNGKLHRGQLGGAGEIGHMPIGEAGFVYDAVRPGRWETFIGKDALLARYAHISGVIGSLDAFIAVLASGDPTALACARDWARWLVRGLATLACVLQPGRIILAGSVSAIYPFVAEQTEALLAASLIEGYPTPRVETSSTGNDGPALGAAYLLHQAMLAGNTRPHMRDVAVL
MGSDKIHHHHHHMSPKAAIHNRSGSFSDRWIAYCQQRNIPYKTVDCHSSDIIEELADCSFLMWNWSQTYAEDMLIARGLIKAVESMGIRVFPNSETCWHFDDKVAQKYLMEALGVPMVKSYVFLDRARALEWARKTEYPKVFKLRGGAGSSNVFLVNDINKAERLINKAFSTGFPPVSRWNALSERWWQFKRDKTFISFFNISRGIFRALIKNPTLERLPVQRNYAYFQDFVPDNDSDIRVIAIGKRAFGIKRMVREGDFRASGSGKILYDPELIPEACIRMTFDLAKKTRSQSLVLDFIFSDGSPLVVEMSYAFASHGYLSCPGYWRNDMTWVEGSFHPEDFMVDDLIVSSVERS
MGSDKIHHHHHHMSRLVVKNLTKIFSLGFFSKRRIEAVKNVSFEVKEKEIVSLVGESGSGKTTTAKMILRLLPPTSGEIYFEGKDIWKDIKDRESLVEFRRKVHAVFQDPFASYNPFYPVERTLWQAISLLENKPSNKKEALELIKESLFRVGIDPKDVLGKYPHQISGGQKQRIMIARCWILRPLLIVADEPTSMIDASSRGGIIKLLEELREEQGTSIIFITHDLGLAYYVSDNIFVMKNGEIVERGHPDKVVLEPTHEYTKLLVGSIPKLYRKLEDL
MGSDKIHHHHHHMSRQKFVNRERELAFLEERYASGDAELLIIYGRRRIGKTELLLHFARNKEHVYFLASEKPYRDNLRELQRMMGDFLGDRLFSRIEFSDIDELLIEFSKRVRGRRVVLIIDEFPYLIEHYKPVLSLIQRAWDMELSKSDLLLILCGSSVSSMETEVLGYKSPLYGRRTGQWMVDELPFWSLREFFPSYSTEDIVKVYGVLGGIPAYLLQFDPEKSFDENVVEKVLSKGAFLYEEAEILLKEEMREPANYFIILQAIASGRSRFGEIVNATGLDKSLVSKYLNVLEKLRIVEREVPVTASRKEALKRGKYSITDNYLAFWFRYVLPNKSYLETGLGKEIWERSKEDFKEYMGGVFERLLRKPEVFTKLTNFRFTKIGRWWHKGEEIDLVALNEREKKALFIEVKWKDLSEREARGILKDLKRKVKLVGLDEWGKHYGLVAKNVKGKDKIKEEGWLAWDLEDFERLGVSG
MGSDKIHHHHHHMSSVGDFEEIILHDLKPYYHVPGAIHSEGITFVKETGTLLWVDIFKGEVHKVEDIEQPESSHSFFSISRANYGKNASIEYPPNPDELKESVGCIFPILDGASQNEIKQVLFGSKFGIGKLDFSKSEWEYVILYSECPELSTDRAYKLRSNDGNVSPDGKYIYVGLMSDFPFDLEPIGCLLRVDLLAHKIELVWNCLLIPNAIHWDESDQKTMYVTDSLNFTIWKCPGGDLLKRDELIDVKNSNNQSFESPEPDGSAIWFSKDGKHSGFLFITVWSTSKVQMFDLTNGKLLKEFILPEQTPRVSCCCFVGKDLFVTTANAEINDAVRTNTDKNGGCIYKIPNVLDGNVPLESTKRQPLH
